The values below come from patent US20140322196A1.

For experiment [1], the target named is Hemagglutinin (HA) of Avian 29/05/06 H5N1 (inactivated vaccine) (Influenza A virus Avian 29/05/06 H5N1). Put plainly: cell-based or functional assay.
Experiment [2] deals with Hemagglutinin (HA) of Influenza SW [change] 1089/09 swine pandemic H1N1 (inactivated subunits, vaccine) (Influenza A virus SW [change] swine pandemic H1N1). In words: cell-based or functional assay.

For “Lactoferrin from bovine milk (bLf) (from UniProt P24627 20-708)”, the HI titre in experiment [1] came out at 2900 fM; in experiment [2], 46.5 fM.
The matching figures for “… (SEQ ID NO: 1), bLf C-lobe peptide 418-429”: 18 fM and 5.8 fM.
The matching figures for “… (SEQ ID NO: 2), bLf C-lobe peptide 506-522”: 70 fM and 46 fM.
